Substrate: N=C(N)NCCC[C@H](NC(=O)[C@H](Cc1ccccc1)NC(=O)[C@@H]1CCCN1C(=O)c1ccccc1)C(=O)Nc1ccc([N+](=O)[O-])cc1
Assay: Km and vmax determination with substrate (Lineweaver-Burk), plasmin
Format: biochemical
Conditions: other: plasmin; substrate concentration varied, enzyme constant; measured at 405 nm
Description: As is evident from equation (2) constants Km and k3 determine the activity of the enzyme substrate for a given enzyme. For determining these constants the following procedure is followed:
The enzyme and the substrate are mixed in a buffer solution, and the reaction is followed spectrophotometrically for 2 to 30 minutes. The concentration of substrate [S] is varied, whereas the enzyme concentration [E] is kept constant. If the extinction (OD) (= optical density) is plotted in a co-ordinate system as a function of time, a curve is obtained the tangent of which (difference in extinction per minute, Δ OD/minute, from which the quantity in μmoles of pNA/min (v) can be calculated) at time zero corresponds to the ideal course of the hydrolysis. By means of this tangent the initial rate of the hydrolysis can be determined.
If 1/v is plotted against 1/[S], a Lineweaver-Burk diagram (cf. "Kurzes Lehrbuch der Biochemie" by P. KARSON, Georg Thieme-Verlag, Stuttgart, 1967, p. 70) is obtained from which vmax and Km can be determined graphically.
Km and k3 = vmax /E were determined with N^α-Bz-Pro-Phe-Arg-pNA^. HCl (i.e. the substrate prepared according to Example 1) for plasma kallikrein, trypsin, plasmin and thrombin.

B1: plasmin (Homo sapiens) (protein)
chain: VVGGCVAHPHSWPWQVSLRTRFGMHFCGGTLISPEWVLTAAHCLEKSPRPSSYKVILGAHQEVNLEPHVQEIEVSRLFLEPTRKDIALLKLSSPAVITDKVIPACLPSPNYVVADRTECFITGWGETQGTFGAGLLKEAQLPVIENKVCNRYEFLNGRVQSTELCAGHLAGGTDSCQGDSGGPLVCFEKDKYILQGVTSWGLGCARPNKPGVYVRVSRFVTWIEGVMRNN
- Km: 140 µM
